From CN116745314A come the findings set out here.

The target in the test is spike glycoprotein of live SARS-CoV-2 (isolate USA-WA1/2020) (SARS-CoV-2) (UniProt P0DTC2). As to the kind of experiment: cell-based or functional assay.

For S2D106-LS (antibody), the EC50 (live SARS-CoV-2-luc neutralisation, MOI 0.1, 6 h) is 6 ng/mL; the EC90 (live SARS-CoV-2-luc neutralisation, MOI 0.1, 6 h) worked out at 22 ng/mL; the IC50 (live SARS-CoV-2-luc neutralisation, MOI 0.1, 6 h) worked out at 4.49 ng/mL.
